The text below walks through data of patent US20240043560A1 (Regeneron, published 2024).

Assay [1] addresses full-length human CD28 (hCD28, amino acids M1 to S220, accession #P10747) on engineered reporter T-cells (human, UniProt P10747 19-220). The assay is described as follows: cell-based or functional assay.
The target of assay [2] is T1, PSMA on the surface of cell lines expressing PSMA (C4-2, 22RV1) (human, UniProt Q04609 1-750).
T1 construct: whole, on cells; also called C4-2 cells; 22RV1 cells
T1 sequence (Q04609 whole entry): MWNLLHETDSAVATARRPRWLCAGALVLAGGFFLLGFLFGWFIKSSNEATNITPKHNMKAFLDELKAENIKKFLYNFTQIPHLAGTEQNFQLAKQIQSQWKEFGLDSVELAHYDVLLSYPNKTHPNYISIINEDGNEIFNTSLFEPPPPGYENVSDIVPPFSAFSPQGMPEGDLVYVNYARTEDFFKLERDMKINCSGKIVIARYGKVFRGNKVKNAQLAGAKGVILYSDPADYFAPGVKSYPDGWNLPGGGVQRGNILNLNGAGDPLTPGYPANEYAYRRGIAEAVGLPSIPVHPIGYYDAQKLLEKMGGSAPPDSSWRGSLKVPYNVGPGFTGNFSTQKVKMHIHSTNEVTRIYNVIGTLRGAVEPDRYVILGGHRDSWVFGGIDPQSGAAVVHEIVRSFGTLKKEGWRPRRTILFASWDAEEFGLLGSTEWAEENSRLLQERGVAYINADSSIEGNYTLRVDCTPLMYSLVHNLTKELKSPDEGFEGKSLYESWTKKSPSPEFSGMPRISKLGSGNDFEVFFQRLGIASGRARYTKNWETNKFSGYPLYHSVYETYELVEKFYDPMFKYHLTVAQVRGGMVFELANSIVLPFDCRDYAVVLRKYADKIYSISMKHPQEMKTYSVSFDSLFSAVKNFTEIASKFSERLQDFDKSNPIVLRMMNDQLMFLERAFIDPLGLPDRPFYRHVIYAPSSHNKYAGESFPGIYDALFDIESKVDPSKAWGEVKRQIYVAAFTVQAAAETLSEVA
The assay is described as follows: flow cytometry, C4-2 cells expressing PSMA.

Assay [3] deals with T1, PSMA on the surface of cell lines …. In words: flow cytometry, 22RV1 cells expressing PSMA.
Assay [4] has as its target T2, CD28 on the surface of Human T cells (human, UniProt P10747 19-220).
T2 construct: whole, on cells; also called CD28 on T cells; all T cells
In words: flow cytometry, human CD4+ T cells; CD4+ T cells.

The target in assay [5] is T2, CD28 on the surface of Human T cells. In words: flow cytometry, human CD8+ T cells; CD8+ T cells.
For assay [6] the target is unchanged. The assay is described as follows: flow cytometry, human T cells (all T cells); all T cells.
The target of assay [7] is T3, hCD28.mmh (human, UniProt P10747 19-152).
T3 construct: also called hCD28.6H; not shown: neither explained nor printed
The assay is described as follows: SPR, Biacore, captured antibody, soluble hCD28 injected, 37°C.

Assay [8] concerns the target T4, 6h.hPSMA (recombinant Human PSMA/FOLH1 Protein, R&D, Catalog #4234-ZN) (human, UniProt Q04609 44-750).
T4 construct: Bought protein; also called hPSMA with an N-terminal polyhistidine tag; hPSMA.6H; not shown: N-terminal polyhistidine tag (6h)
In words: SPR, Biacore, captured antibody, hPSMA.6H (block headed 10 nM), 37°C.

Assay [9] concerns the target T4, 6h.hPSMA (recombinant Human PSMA/FOLH1 …). In words: SPR, Biacore, captured antibody, hPSMA.6H (block headed 20 nM), 37°C.
Assay [10] shares this target. The assay is described as follows: SPR, Biacore T-200, antibody captured by anti-human Fc, 6h.hPSMA injected, 25°C. Here is the method:
(§1) The different concentrations of 6h.hPSMA were injected over the monoclonal antibody captured surface at a flow rate of 50 μL/minute. Association of 6h.hPSMA to the captured monoclonal antibody was monitored for 3 minutes and the dissociation of 6h.hPSMA in HBS-P++ running buffer was monitored for 10 minutes. Kinetic association (kₐ) and dissociation (kd) rate constants were determined by fitting the real-time sensorgrams to a 1:1 binding model using Scrubber 2.0c curve fitting software (BioLogic Software). Binding dissociation equilibrium constants (KD) and dissociative half-lives (t1/2) were calculated from the kinetic rate constants as: KD(M)=kd/kₐ, and t1/2 (min)=0.693/kd/60

Assay [11] addresses T3, hCD28.mmh. In words: SPR, Biacore T-200, antibody captured by anti-human Fc, hCD28.mmh injected, 25°C. Here is the method:
as §1, with “Different concentrations” for “The different concentrations”, “of hCD28.mmh” for “of 6h.hPSMA”, “for 5” for “for 3”, “fitting software.” for “fitting software (BioLogic Software).”

Assay [12] deals with T4, 6h.hPSMA (recombinant Human PSMA/FOLH1 …). The assay is described as follows: SPR, Biacore, captured antibody, hPSMA.6H (block headed 20 nM), 37°C; 20 nM hPSMA.6H block, 37 C.

T4 sequence (Q04609 44-750 limits assumed): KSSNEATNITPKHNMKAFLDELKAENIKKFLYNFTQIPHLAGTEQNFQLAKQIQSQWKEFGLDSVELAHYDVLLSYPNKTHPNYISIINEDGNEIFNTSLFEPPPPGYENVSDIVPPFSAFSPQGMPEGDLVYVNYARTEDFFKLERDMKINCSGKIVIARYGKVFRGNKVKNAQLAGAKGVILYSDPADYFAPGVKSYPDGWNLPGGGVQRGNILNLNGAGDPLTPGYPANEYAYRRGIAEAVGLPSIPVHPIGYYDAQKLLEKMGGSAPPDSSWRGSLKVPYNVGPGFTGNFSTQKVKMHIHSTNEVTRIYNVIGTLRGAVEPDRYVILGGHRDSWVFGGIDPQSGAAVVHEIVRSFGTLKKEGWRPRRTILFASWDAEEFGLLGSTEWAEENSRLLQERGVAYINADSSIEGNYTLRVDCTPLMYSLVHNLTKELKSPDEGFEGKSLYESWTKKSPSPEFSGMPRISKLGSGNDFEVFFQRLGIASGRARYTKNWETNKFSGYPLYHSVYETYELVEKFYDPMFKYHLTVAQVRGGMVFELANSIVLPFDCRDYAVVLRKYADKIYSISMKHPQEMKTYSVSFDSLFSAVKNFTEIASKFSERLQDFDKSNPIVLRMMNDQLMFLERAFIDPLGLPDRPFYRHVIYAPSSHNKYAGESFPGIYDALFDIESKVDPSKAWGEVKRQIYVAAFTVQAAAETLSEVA

B1: BSPSMA/CD28-001 (bispecific antibody, human IgG4 S228P, kappa)
heavy 1: QVQLVESGGGVVQPGRSLRLSCAASGFTFSSYGMHWVRQAPGKGLEWVAFMSYDGSNKFYSDSVKGRFTISRDNSRKMLFLQMNNLRAEDTAVYYCARDQYYDFLTDHGVFDYWGQGTLVTVSSASTKGPSVFPLAPCSRSTSESTAALGCLVKDYFPEPVTVSWNSGALTSGVHTFPAVLQSSGLYSLSSVVTVPSSSLGTKTYTCNVDHKPSNTKVDKRVESKYGPPCPPCPAPPVAGPSVFLFPPKPKDTLMISRTPEVTCVVVDVSQEDPEVQFNWYVDGVEVHNAKTKPREEQFNSTYRVVSVLTVLHQDWLNGKEYKCKVSNKGLPSSIEKTISKAKGQPREPQVYTLPPSQEEMTKNQVSLTCLVKGFYPSDIAVEWESNGQPENNYKTTPPVLDSDGSFFLYSRLTVDKSRWQEGNVFSCSVMHEALHNHYTQKSLSLSLGK
heavy 2: QVQLQESGPGLVKPSETLSLTCTVSGGSISSYYWSWIRQPPGKGLEWIGYIYYSGITHYNPSLKSRVTISVDTSKIQFSLKLSSVTAADTAVYYCARWGVRRDYYYYGMDVWGQGTTVTVSSASTKGPSVFPLAPCSRSTSESTAALGCLVKDYFPEPVTVSWNSGALTSGVHTFPAVLQSSGLYSLSSVVTVPSSSLGTKTYTCNVDHKPSNTKVDKRVESKYGPPCPPCPAPPVAGPSVFLFPPKPKDTLMISRTPEVTCVVVDVSQEDPEVQFNWYVDGVEVHNAKTKPREEQFNSTYRVVSVLTVLHQDWLNGKEYKCKVSNKGLPSSIEKTISKAKGQPREPQVYTLPPSQEEMTKNQVSLTCLVKGFYPSDIAVEWESNGQPENNYKTTPPVLDSDGSFFLYSRLTVDKSRWQEGNVFSCSVMHEALHNRFTQKSLSLSPGK
light: not shown
notes: also called mAb1; REGN5678
Consider B1, for which, in [1], the “EC50 [M], luciferase activity in engineered reporter T-cells with HEK293/hCD20/hPSMA, presence of TCR stimulation” value came out at 1.72e-10 M. The “Fold induction, luciferase activity in engineered reporter T-cells with HEK293/hCD20, absence of TCR stimulation” value in assay [1] was 0.81 fold. Moreover, the “Fold induction, luciferase activity in engineered reporter T-cells with HEK293/hCD20, presence of TCR stimulation” value in assay [1] turned out to be 1 fold. Besides, the “Fold induction, luciferase activity in engineered reporter T-cells with HEK293/hCD20/hPSMA, absence of TCR stimulation” value in assay [1] amounted to 1.04 fold. For the same molecule, in assay [1], the “Fold induction, luciferase activity in engineered reporter T-cells with HEK293/hCD20/hPSMA, presence of TCR stimulation” value is 16.1 fold. The EC50 was 3.87 nM in [2]; 3.05 nM in [3]; 50.9 nM in [4]; 58.9 nM in [5]; 48 nM in assay [6]. For the same molecule, the Kd in the assay with hCD28.mmh [7] amounted to 272 nM; in assay [8], 0.396 nM; in assay [9] it was 0.217 nM; in assay [10], 0.251 nM; with hCD28.mmh [11], 144 nM. Also, the koff amounted to 0.0067 s⁻¹ in the assay with hCD28.mmh [7]; 7.93e-05 s⁻¹ in assay [8]; 4.92e-05 s⁻¹ in assay [10]; 0.00326 s⁻¹ with hCD28.mmh [11]; 6.36e-05 s⁻¹ in assay [12]. Besides, the kon with hCD28.mmh [7] was found to be 24600 M⁻¹ s⁻¹; in assay [8], 200000 M⁻¹ s⁻¹; in assay [9], 293000 M⁻¹ s⁻¹; in assay [10], 196000 M⁻¹ s⁻¹; with hCD28.mmh [11], 22600 M⁻¹ s⁻¹. Further, the t½ was determined as 1.7 min with hCD28.mmh [7], 2.43 h in [8] and 3.03 h in assay [9]. For the same molecule, the “T½” value in assay [10] was 3.91 h; in the assay with hCD28.mmh [11], 3.5 min.

B2: BSPSMA/CD28-002 (bispecific antibody, human IgG4 S228P, kappa)
heavy 1: QVQLVESGGGVVQPGRSLRLSCAASGFTFSSYGMHWVRQAPGKGLEWVAVISYAGNNKYYADSVKGRFTVSRDNSKKTLYLQMNSLRSEDTAVYYCAKDSYYDFLTDPDVLDIWGQGTMVTVSSASTKGPSVFPLAPCSRSTSESTAALGCLVKDYFPEPVTVSWNSGALTSGVHTFPAVLQSSGLYSLSSVVTVPSSSLGTKTYTCNVDHKPSNTKVDKRVESKYGPPCPPCPAPPVAGPSVFLFPPKPKDTLMISRTPEVTCVVVDVSQEDPEVQFNWYVDGVEVHNAKTKPREEQFNSTYRVVSVLTVLHQDWLNGKEYKCKVSNKGLPSSIEKTISKAKGQPREPQVYTLPPSQEEMTKNQVSLTCLVKGFYPSDIAVEWESNGQPENNYKTTPPVLDSDGSFFLYSRLTVDKSRWQEGNVFSCSVMHEALHNHYTQKSLSLSLGK
heavy 2: EVQLVESGGGLVQPGGSLRLSCAASGFTFSTYAMTWVRQAPGKGLEWVSFISGSGDNTYYADSVKGRFTISRDNSKNTLYLQMNSLRADDSAIYHCAKDSGYCSSGGCSLYFYYGMDVWGQGTTVTVSSASTKGPSVFPLAPCSRSTSESTAALGCLVKDYFPEPVTVSWNSGALTSGVHTFPAVLQSSGLYSLSSVVTVPSSSLGTKTYTCNVDHKPSNTKVDKRVESKYGPPCPPCPAPPVAGPSVFLFPPKPKDTLMISRTPEVTCVVVDVSQEDPEVQFNWYVDGVEVHNAKTKPREEQFNSTYRVVSVLTVLHQDWLNGKEYKCKVSNKGLPSSIEKTISKAKGQPREPQVYTLPPSQEEMTKNQVSLTCLVKGFYPSDIAVEWESNGQPENNYKTTPPVLDSDGSFFLYSRLTVDKSRWQEGNVFSCSVMHEALHNRFTQKSLSLSPGK
light: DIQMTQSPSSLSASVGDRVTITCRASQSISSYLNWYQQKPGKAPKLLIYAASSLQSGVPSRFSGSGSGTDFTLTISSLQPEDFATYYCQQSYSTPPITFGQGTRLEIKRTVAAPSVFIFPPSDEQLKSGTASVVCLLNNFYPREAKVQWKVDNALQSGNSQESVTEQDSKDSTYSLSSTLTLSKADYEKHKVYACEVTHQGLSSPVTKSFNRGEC
On to B2, for which, in [1], the “EC50 [M], luciferase activity in engineered reporter T-cells with HEK293/hCD20/hPSMA, presence of TCR stimulation” value is 4.57e-10 M; the “Fold induction, luciferase activity in engineered reporter T-cells with HEK293/hCD20, absence of TCR stimulation” value came out at 0.87 fold; the “Fold induction, luciferase activity in engineered reporter T-cells with HEK293/hCD20, presence of TCR stimulation” value came out at 0.92 fold; the “Fold induction, luciferase activity in engineered reporter T-cells with HEK293/hCD20/hPSMA, absence of TCR stimulation” value came to 0.89 fold. The “Fold induction, luciferase activity in engineered reporter T-cells with HEK293/hCD20/hPSMA, presence of TCR stimulation” value in [1] was determined as 13.6 fold.

B3: BSPSMA/CD28-003 (bispecific antibody, human IgG4 S228P, kappa)
heavy 1: B2 heavy 1
heavy 2: EVQLVESGGGLVQPGGSLRLSCAASGFTFSRNNMHWVRQAPGKGLEYVSGISSNGGRTYYADSVKGRFTISRDNSKNTLYLQMGGLRAADMAVYFCTRDDELLSFDYWGQGTLVTVSSASTKGPSVFPLAPCSRSTSESTAALGCLVKDYFPEPVTVSWNSGALTSGVHTFPAVLQSSGLYSLSSVVTVPSSSLGTKTYTCNVDHKPSNTKVDKRVESKYGPPCPPCPAPPVAGPSVFLFPPKPKDTLMISRTPEVTCVVVDVSQEDPEVQFNWYVDGVEVHNAKTKPREEQFNSTYRVVSVLTVLHQDWLNGKEYKCKVSNKGLPSSIEKTISKAKGQPREPQVYTLPPSQEEMTKNQVSLTCLVKGFYPSDIAVEWESNGQPENNYKTTPPVLDSDGSFFLYSRLTVDKSRWQEGNVFSCSVMHEALHNRFTQKSLSLSPGK
light: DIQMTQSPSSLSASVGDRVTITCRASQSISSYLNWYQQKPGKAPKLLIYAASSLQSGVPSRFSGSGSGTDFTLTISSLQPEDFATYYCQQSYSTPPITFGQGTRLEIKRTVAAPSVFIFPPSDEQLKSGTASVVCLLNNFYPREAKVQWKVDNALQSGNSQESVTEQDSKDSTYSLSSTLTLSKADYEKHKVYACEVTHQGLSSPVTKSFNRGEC
notes: also called anti-PSMAxCD28 bispecific antibody
Take B3: in [1], the “EC50 [M], luciferase activity in engineered reporter T-cells with HEK293/hCD20/hPSMA, presence of TCR stimulation” value was 2.78e-10 M; the “Fold induction, luciferase activity in engineered reporter T-cells with HEK293/hCD20, absence of TCR stimulation” value came to 0.94 fold; the “Fold induction, luciferase activity in engineered reporter T-cells with HEK293/hCD20, presence of TCR stimulation” value is 0.95 fold; the “Fold induction, luciferase activity in engineered reporter T-cells with HEK293/hCD20/hPSMA, absence of TCR stimulation” value amounted to 0.98 fold. For the same molecule, the “Fold induction, luciferase activity in engineered reporter T-cells with HEK293/hCD20/hPSMA, presence of TCR stimulation” value in assay [1] was 24.5 fold. In addition, in assay [2], the EC50 worked out at 1.5 nM. The molecule also registered an EC50 in assay [3] of 6.33 nM. The molecule further had an EC50 in assay [4] of 167 nM. Moreover, in assay [5], the EC50 came to 180 nM. In assay [10], the Kd was found to be 0.137 nM, the “T½” value stood at 5.01 h, the koff worked out at 3.85e-05 s⁻¹ and the kon is 280000 M⁻¹ s⁻¹. For the same molecule, in the assay with hCD28.mmh [11], the Kd amounted to 207 nM, the “T½” value came to 8.2 min, the koff came out at 0.00141 s⁻¹ and the kon turned out to be 6790 M⁻¹ s⁻¹.
